PMC6131546, “Interaction of TBC1D9B with Mammalian ATG8 Homologues Regulates Autophagic Flux” (Scientific Reports, 2018)

Molecular target: T1, FLAG-TBC1D9Bα from a stable HEK293 cell line (human, UniProt Q66K14-1 1-1250)
T1 construct: human TBC1D9B, alpha splice form, in pcDNA3.1-FLAG; also called FLAG-tagged recombinant TBC1D9B; source: purified (anti-FLAG M2 beads, eluted with glycine HCl) for the pull-down; in lysate for the co-IP
Test: pull-down; GST fusion on glutathione-sepharose beads, incubated with recombinant FLAG-TBC1D9B or His-LC3B at 4 °C for 1 hour; 20 mM Tris pH 7.4, 0.1 mM EDTA, 100 mM NaCl; SDS-PAGE with Coomassie Brilliant Blue
Conditions: both partners purified

T1 sequence (Q66K14 whole entry, canonical isoform): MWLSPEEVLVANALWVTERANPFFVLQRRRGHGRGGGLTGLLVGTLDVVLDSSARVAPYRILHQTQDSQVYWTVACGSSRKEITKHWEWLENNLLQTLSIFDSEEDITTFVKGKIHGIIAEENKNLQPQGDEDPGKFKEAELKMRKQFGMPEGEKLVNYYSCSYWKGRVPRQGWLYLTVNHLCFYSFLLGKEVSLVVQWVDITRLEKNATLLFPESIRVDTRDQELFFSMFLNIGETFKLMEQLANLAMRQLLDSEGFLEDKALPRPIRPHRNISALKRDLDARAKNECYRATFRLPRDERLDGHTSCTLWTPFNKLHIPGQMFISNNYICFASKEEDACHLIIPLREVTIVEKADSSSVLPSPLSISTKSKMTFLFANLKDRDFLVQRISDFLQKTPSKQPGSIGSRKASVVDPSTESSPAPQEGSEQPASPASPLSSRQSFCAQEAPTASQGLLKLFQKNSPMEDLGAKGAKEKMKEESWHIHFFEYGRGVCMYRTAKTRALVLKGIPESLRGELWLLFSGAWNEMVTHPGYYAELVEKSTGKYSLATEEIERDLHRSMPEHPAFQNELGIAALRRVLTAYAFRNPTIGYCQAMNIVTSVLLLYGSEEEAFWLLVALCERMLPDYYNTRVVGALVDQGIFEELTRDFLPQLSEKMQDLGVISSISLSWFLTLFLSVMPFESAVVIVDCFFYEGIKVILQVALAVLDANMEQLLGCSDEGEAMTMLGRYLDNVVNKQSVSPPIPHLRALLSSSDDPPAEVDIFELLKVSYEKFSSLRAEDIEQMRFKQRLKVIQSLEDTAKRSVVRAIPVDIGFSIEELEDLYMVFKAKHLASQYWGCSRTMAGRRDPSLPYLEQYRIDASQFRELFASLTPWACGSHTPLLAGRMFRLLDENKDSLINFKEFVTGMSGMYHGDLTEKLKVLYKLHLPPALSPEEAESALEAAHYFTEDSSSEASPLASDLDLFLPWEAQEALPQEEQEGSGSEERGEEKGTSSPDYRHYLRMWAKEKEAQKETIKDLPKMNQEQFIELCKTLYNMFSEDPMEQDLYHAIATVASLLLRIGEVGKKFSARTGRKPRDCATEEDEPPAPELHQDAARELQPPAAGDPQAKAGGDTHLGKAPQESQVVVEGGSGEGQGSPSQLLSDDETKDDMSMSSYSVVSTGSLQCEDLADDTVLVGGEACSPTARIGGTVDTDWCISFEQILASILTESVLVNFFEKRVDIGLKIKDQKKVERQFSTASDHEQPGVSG

B1: recombinant GST-GABARAP (natural protein, human, UniProt O95166 1-117, looked up)
chain: MKFVYKEEHPFEKRRSEGEKIRKKYPDRVPVIVEKAPKARIGDLDKKKYLVPSDLTVGQFYFLIRKRIHLRAEDALFFFVNNVIPPTSATMGQLYQEHHEEDFFLYIAYSDESVYGL
notes: human GABARAP, cloned into pGEX-6p; also called GST-fused GABARAP; source: E. coli BL21, purified (glutathione-sepharose)
binding result: binds
